Measurements as given in the supplement of paper PMC10126150.
± gives the standard deviation of the averaged measurements.

The sequences below were run on ATP (assay: switch fluorescence ratio, 500 uM ATP over buffer (Cy3 cluster intensity, sum of 5 cycles each) (fold (ratio)); higher = stronger signal-on switching upon ATP binding; sequences stand for … in TCGTCGGCAGCGTCAGATGTGTATAAGAGACAGTTTTTTTTTTTTTTTTTTTTTTTTT…TC). Details: aptamer strand: ATP DNA aptamer (quencher-CACCTGGGGGAGTATTGCGGAGGAAGG + anchor), 100 nM annealed; ATP concentration: 500 uM.
Procedure, shortened: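 Values give the fluorescence ratio for each switch-domain sequence, averaged from per-cluster ratios of summed target-cycle to summed buffer-cycle Cy3 intensity. The Cy3-labelled switching-strand clusters sat on a modified Illumina MiSeq flow-cell, were annealed to 100 nM quencher-labelled ATP aptamer, and were imaged in selection buffer, then after 15 min with 500 uM ATP at 22 °C. Five cycles ran with NaOH stripping and re-annealing between them, and clusters outside 100-1000 RFU were excluded.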
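Also: ATP exposure 15 min at 22 °C before imaging.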

**Q.** With GGAGACGTTA as the sequence, how does the switch fluorescence ratio read?
**A.** 1.02 ± 0.052

**Q.** For TTAACAGTTT, which switch fluorescence ratio is on record?
**A.** 1.001 ± 0.0067

**Q.** For TACGTGTTTT, which switch fluorescence ratio is on record?
**A.** 1 ± 0.0081

**Q.** With CGTGTTAACT as the sequence, how does the switch fluorescence ratio read?
**A.** 0.992 ± 0.047

**Q.** How did the switch fluorescence ratio turn out when AGGTGTTTTG was run?
**A.** 1.02 ± 0.0087

**Q.** TATTAATAGA was tested. Which switch fluorescence ratio did it give?
**A.** 0.999 ± 0.061

**Q.** ATTAGGGCAT was tested. Which switch fluorescence ratio did it give?
**A.** 1.006 ± 0.0075

**Q.** TTACGACGCA was tested. Which switch fluorescence ratio did it give?
**A.** 3.67 ± 0.76

**Q.** With TTAATAGGTG as the sequence, how does the switch fluorescence ratio read?
**A.** 1.14 ± 0.015

**Q.** For GATAATAAAC, which switch fluorescence ratio is on record?
**A.** 1.06 ± 0.045

**Q.** With GCGAGAGGGA as the sequence, how does the switch fluorescence ratio read?
**A.** 1.01 ± 0.013

**Q.** Which switch fluorescence ratio does the source give for GGTTTTTGTG here?
**A.** 1.01 ± 0.034

**Q.** With TCCTTCAAAG as the sequence, how does the switch fluorescence ratio read?
**A.** 1.08 ± 0.085

**Q.** Which switch fluorescence ratio does the source give for AAGGCAGATC here?
**A.** 1.05 ± 0.037

**Q.** CAGTTAGTAC was tested. Which switch fluorescence ratio did it give?
**A.** 1.1 ± 0.018

**Q.** For TGAATCTAGA, which switch fluorescence ratio is on record?
**A.** 1.01 ± 0.019

**Q.** AGATATTCCG was tested. Which switch fluorescence ratio did it give?
**A.** 0.987 ± 0.02

**Q.** For AGTAAAAAAA, which switch fluorescence ratio is on record?
**A.** 0.987 ± 0.033

**Q.** How did the switch fluorescence ratio turn out when GGTATCTAGA was run?
**A.** 1.02 ± 0.0067

**Q.** Which switch fluorescence ratio does the source give for CTTTTGAGGA here?
**A.** 0.9952 ± 0.0042

**Q.** For AGGATCGACG, which switch fluorescence ratio is on record?
**A.** 0.925 ± 0.013

**Q.** Which switch fluorescence ratio does the source give for AATTGTATTA here?
**A.** 0.973 ± 0.041

**Q.** With TCTTGTAAGT as the sequence, how does the switch fluorescence ratio read?
**A.** 0.992 ± 0.023

**Q.** Which switch fluorescence ratio does the source give for GCTTTACACC here?
**A.** 1.19 ± 0.092

**Q.** How did the switch fluorescence ratio turn out when ACACTTAGCT was run?
**A.** 1.07 ± 0.025

**Q.** Which switch fluorescence ratio does the source give for CCTTTTAGCA here?
**A.** 2.07 ± 0.12

**Q.** Which switch fluorescence ratio does the source give for CAATTTTATA here?
**A.** 1.033 ± 0.0026

**Q.** How did the switch fluorescence ratio turn out when TTGTGAAGGC was run?
**A.** 1.04 ± 0.015

**Q.** TTTTACGATG was tested. Which switch fluorescence ratio did it give?
**A.** 1 ± 0.012

**Q.** For ATGATATGGG, which switch fluorescence ratio is on record?
**A.** 0.985 ± 0.026

**Q.** AATATTTCGG was tested. Which switch fluorescence ratio did it give?
**A.** 0.99 ± 0.0092

**Q.** Which switch fluorescence ratio does the source give for TTTTGACGTT here?
**A.** 1.04 ± 0.042

**Q.** For CTCATAATTT, which switch fluorescence ratio is on record?
**A.** 0.993 ± 0.037

**Q.** Which switch fluorescence ratio does the source give for AGAAGTGGGG here?
**A.** 0.989 ± 0.039

**Q.** With ATGTGCTGGT as the sequence, how does the switch fluorescence ratio read?
**A.** 0.991 ± 0.021

**Q.** AGGGAGAACG was tested. Which switch fluorescence ratio did it give?
**A.** 0.961 ± 0.047

**Q.** TCGAAGGATA was tested. Which switch fluorescence ratio did it give?
**A.** 0.992 ± 0.011

**Q.** How did the switch fluorescence ratio turn out when GAATTCGGGA was run?
**A.** 1 ± 0.013

**Q.** How did the switch fluorescence ratio turn out when TCGAGGAATC was run?
**A.** 1.075 ± 0.0094

**Q.** With AGGAGTTATG as the sequence, how does the switch fluorescence ratio read?
**A.** 1.015 ± 0.0046

**Q.** ATGGGGAGGC was tested. Which switch fluorescence ratio did it give?
**A.** 1.05 ± 0.051

**Q.** Which switch fluorescence ratio does the source give for CTCCTAGTTT here?
**A.** 1.03 ± 0.02

**Q.** With ACTGGTCGCC as the sequence, how does the switch fluorescence ratio read?
**A.** 0.992 ± 0.015

**Q.** How did the switch fluorescence ratio turn out when ATAGTATAGA was run?
**A.** 1.01 ± 0.047

**Q.** ATCGATGAAT was tested. Which switch fluorescence ratio did it give?
**A.** 0.995 ± 0.015

**Q.** CTTAGGCCAC was tested. Which switch fluorescence ratio did it give?
**A.** 0.99 ± 0.024

**Q.** For TGTTAAAATT, which switch fluorescence ratio is on record?
**A.** 0.969 ± 0.063

**Q.** How did the switch fluorescence ratio turn out when GGGGGGAGCC was run?
**A.** 0.996 ± 0.015

**Q.** CAAGGGGACG was tested. Which switch fluorescence ratio did it give?
**A.** 1.004 ± 0.0082

**Q.** With AGCACATGTA as the sequence, how does the switch fluorescence ratio read?
**A.** 0.998 ± 0.021

**Q.** For TCCAACGGGT, which switch fluorescence ratio is on record?
**A.** 1.03 ± 0.059

**Q.** How did the switch fluorescence ratio turn out when TTTATGTCTG was run?
**A.** 1.01 ± 0.039

**Q.** For TCGGCGTCAG, which switch fluorescence ratio is on record?
**A.** 0.9817 ± 0.0041

**Q.** Which switch fluorescence ratio does the source give for CATTGCGGGA here?
**A.** 1.02 ± 0.024

**Q.** For ACGCCCTGGC, which switch fluorescence ratio is on record?
**A.** 1.04 ± 0.045

**Q.** How did the switch fluorescence ratio turn out when AGGGACTTGG was run?
**A.** 1 ± 0.047

**Q.** CATGTGCTTC was tested. Which switch fluorescence ratio did it give?
**A.** 1.03 ± 0.0077

**Q.** Which switch fluorescence ratio does the source give for TATATATTTT here?
**A.** 1.01 ± 0.029

**Q.** Which switch fluorescence ratio does the source give for TATTTTCGGG here?
**A.** 1.011 ± 0.0078

**Q.** How did the switch fluorescence ratio turn out when TTTTGATTCT was run?
**A.** 1.01 ± 0.028

**Q.** How did the switch fluorescence ratio turn out when CGTTTAATAA was run?
**A.** 1.008 ± 0.0091

**Q.** With GATGGATGGA as the sequence, how does the switch fluorescence ratio read?
**A.** 1.05 ± 0.026

**Q.** With TTCTTCGGAT as the sequence, how does the switch fluorescence ratio read?
**A.** 1.09 ± 0.11

**Q.** For GTGGGAATAT, which switch fluorescence ratio is on record?
**A.** 1.001 ± 0.0083

**Q.** Which switch fluorescence ratio does the source give for TTTGACGCGC here?
**A.** 1.16 ± 0.13

**Q.** With CGAAGCGGGG as the sequence, how does the switch fluorescence ratio read?
**A.** 1.08 ± 0.054

**Q.** With GGGTTCTGGA as the sequence, how does the switch fluorescence ratio read?
**A.** 1.01 ± 0.019

**Q.** How did the switch fluorescence ratio turn out when GGGAGCCTTC was run?
**A.** 1.01 ± 0.031

**Q.** For TGGAAGGTTA, which switch fluorescence ratio is on record?
**A.** 1.01 ± 0.025

**Q.** How did the switch fluorescence ratio turn out when TTTATGCCGT was run?
**A.** 0.9505 ± 0.0022

**Q.** ATGGAGGTTG was tested. Which switch fluorescence ratio did it give?
**A.** 1.03 ± 0.022

**Q.** For AGGCCTTGTT, which switch fluorescence ratio is on record?
**A.** 0.974 ± 0.019

**Q.** GGGGTTATCG was tested. Which switch fluorescence ratio did it give?
**A.** 0.99 ± 0.029

**Q.** With CCTGGAGGTT as the sequence, how does the switch fluorescence ratio read?
**A.** 0.964 ± 0.022

**Q.** Which switch fluorescence ratio does the source give for GATAGAAGTG here?
**A.** 0.986 ± 0.014

**Q.** With GATTGGGTGT as the sequence, how does the switch fluorescence ratio read?
**A.** 1.03 ± 0.054

**Q.** How did the switch fluorescence ratio turn out when TCCCGCTTGT was run?
**A.** 1.17 ± 0.028

**Q.** Which switch fluorescence ratio does the source give for ATAAGACGTT here?
**A.** 1.01 ± 0.041

**Q.** With TGAGATGGTG as the sequence, how does the switch fluorescence ratio read?
**A.** 0.9739 ± 0.0014

**Q.** GTGGGGGATG was tested. Which switch fluorescence ratio did it give?
**A.** 1 ± 0.033

**Q.** Which switch fluorescence ratio does the source give for GAGGGATGGG here?
**A.** 0.975 ± 0.017

**Q.** With AGGGGAGGGT as the sequence, how does the switch fluorescence ratio read?
**A.** 1 ± 0.015

**Q.** How did the switch fluorescence ratio turn out when TCATTTATAT was run?
**A.** 0.98 ± 0.047

**Q.** For GTGTTATAAT, which switch fluorescence ratio is on record?
**A.** 0.986 ± 0.021

**Q.** How did the switch fluorescence ratio turn out when CACTCATTTT was run?
**A.** 0.98 ± 0.033

**Q.** For AAAATGGTTT, which switch fluorescence ratio is on record?
**A.** 0.994 ± 0.037

**Q.** Which switch fluorescence ratio does the source give for TCATGAGCCA here?
**A.** 1.04 ± 0.025

**Q.** How did the switch fluorescence ratio turn out when AAATGTCCGG was run?
**A.** 1 ± 0.024

**Q.** How did the switch fluorescence ratio turn out when AGTGTCTTTG was run?
**A.** 0.954 ± 0.011

**Q.** Which switch fluorescence ratio does the source give for TCAAAGAATA here?
**A.** 1.02 ± 0.029

**Q.** Which switch fluorescence ratio does the source give for TCCTAGTTGA here?
**A.** 1.024 ± 0.0012

**Q.** How did the switch fluorescence ratio turn out when TGTGGACCAC was run?
**A.** 1.04 ± 0.038

**Q.** GCGATCCTGT was tested. Which switch fluorescence ratio did it give?
**A.** 1.02 ± 0.015

**Q.** With AGAAATCCTT as the sequence, how does the switch fluorescence ratio read?
**A.** 0.976 ± 0.036

**Q.** How did the switch fluorescence ratio turn out when GTTATAACG was run?
**A.** 1 ± 0.05

**Q.** How did the switch fluorescence ratio turn out when ACACGATGCC was run?
**A.** 1 ± 0.043

**Q.** With AGATCCGGGT as the sequence, how does the switch fluorescence ratio read?
**A.** 0.992 ± 0.025

**Q.** For TTCCGGGGGA, which switch fluorescence ratio is on record?
**A.** 1.08 ± 0.11

**Q.** How did the switch fluorescence ratio turn out when GCATAAAACT was run?
**A.** 1.04 ± 0.014

**Q.** For AAGTGGGGTC, which switch fluorescence ratio is on record?
**A.** 0.948 ± 0.037
